Tests used:
NCp7 (HIV-1) [1] = target: NCp7 (HIV-1) (UniProt P12493); assay: Trp fluorescence quenching titration
NCp9 (HIV-1) [2] = target: NCp9 (HIV-1) (UniProt P12493); assay: Trp fluorescence quenching titration
NCp15 (HIV-1) [3] = assay: single-molecule DNA stretching
NCp7 (HIV-1) [4] = target: NCp7 (HIV-1) (UniProt P12493); assay: single-molecule DNA stretching
NCp9 (HIV-1) [5] = target: NCp9 (HIV-1) (UniProt P12493); assay: single-molecule DNA stretching
NCp15 (HIV-1) [6] = assay: Trp fluorescence quenching titration
NCp15 (HIV-1) [7] = assay: ethenoA fluorescence enhancement titration; conditions: 1,N6-ethenoadenosine homopolymer (RNA)
NCp7 (HIV-1) [8] = target: NCp7 (HIV-1) (UniProt P12493); assay: ethenoA fluorescence enhancement titration; conditions: 1,N6-ethenoadenosine homopolymer (RNA)
NCp9 (HIV-1) [9] = target: NCp9 (HIV-1) (UniProt P12493); assay: ethenoA fluorescence enhancement titration; conditions: 1,N6-ethenoadenosine homopolymer (RNA)

Substance: 3'LTR/U5 single strand
- Ka (NCp7 (HIV-1) [1]): 4.3e+07 M⁻¹
- Ka (NCp9 (HIV-1) [2]): 6.2e+07 M⁻¹

Substance: 5'LTR/U3 single strand
- Ka (NCp7 (HIV-1) [1]): 2.2e+08 M⁻¹
- Ka (NCp9 (HIV-1) [2]): 3.9e+08 M⁻¹

Substance: lambda-DNA
- Ka (NCp15 (HIV-1) [3]): 1.04e+08 M⁻¹
- Ka (NCp7 (HIV-1) [4]): 1.22e+08 M⁻¹
- Ka (NCp9 (HIV-1) [5]): 1.4e+08 M⁻¹

Substance: poly(dT)
- Ka (NCp15 (HIV-1) [6]): 1.4e+09 M⁻¹
- Ka (NCp7 (HIV-1) [1]): 9.3e+07 M⁻¹
- Ka (NCp9 (HIV-1) [2]): 1.1e+08 M⁻¹

Substance: poly(etheno-A)
- Ka (NCp15 (HIV-1) [7]): 1.7e+09 M⁻¹
- Ka (NCp7 (HIV-1) [8]): 1.4e+09 M⁻¹
- Ka (NCp9 (HIV-1) [9]): 3.8e+09 M⁻¹
